According to article PMC5295774, “Stabilization of Nucleosomes by Histone Tails and by FACT Revealed by spFRET Microscopy” (Cancers, 2017):

Target: T1, His-MBP-tagged SSRP1 (1–709) (human, UniProt Q08945 1-709)
T1 construct: SSRP1 subunit of human FACT, residues 1-709; The tag was still on SSRP1 when the complex with Spt16 was purified on Nickel-NTA; it was cut afterwards; also called structure-specific recognition protein 1; source: E. coli BL21(DE3), purified (Nickel-NTA)
Experiment: pull-down; purified Spt16 and His-MBP-tagged SSRP1 mixed at a 1:1 molar ratio, complex purified on Nickel-NTA by the tag of SSRP1; after TEV cleavage again Nickel-NTA and Superdex 200 SEC; 50 mM NaH2PO4-Na2HPO4, 300 mM NaCl, pH 7.5
Settings: both partners purified

T1 sequence (Q08945 whole entry, the tested form may be a part): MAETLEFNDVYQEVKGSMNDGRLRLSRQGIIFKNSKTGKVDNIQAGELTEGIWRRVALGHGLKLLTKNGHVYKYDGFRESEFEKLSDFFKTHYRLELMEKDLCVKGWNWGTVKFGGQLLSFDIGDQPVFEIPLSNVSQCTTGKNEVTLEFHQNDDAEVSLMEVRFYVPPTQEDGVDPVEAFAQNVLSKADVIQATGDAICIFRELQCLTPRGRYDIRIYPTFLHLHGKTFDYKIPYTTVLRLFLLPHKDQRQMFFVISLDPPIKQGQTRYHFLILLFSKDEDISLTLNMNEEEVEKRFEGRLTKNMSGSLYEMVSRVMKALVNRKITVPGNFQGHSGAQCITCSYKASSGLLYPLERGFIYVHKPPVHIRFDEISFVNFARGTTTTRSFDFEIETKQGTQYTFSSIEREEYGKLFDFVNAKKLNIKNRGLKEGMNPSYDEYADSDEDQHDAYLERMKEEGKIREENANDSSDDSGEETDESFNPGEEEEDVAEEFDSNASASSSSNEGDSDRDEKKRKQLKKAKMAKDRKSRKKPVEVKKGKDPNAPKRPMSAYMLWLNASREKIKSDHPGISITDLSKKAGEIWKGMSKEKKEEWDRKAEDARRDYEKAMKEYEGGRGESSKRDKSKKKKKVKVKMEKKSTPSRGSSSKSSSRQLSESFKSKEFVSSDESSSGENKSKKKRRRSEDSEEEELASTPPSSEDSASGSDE

- binding result: binds
B1: Spt16 (501–1006) (domain or fragment, human, UniProt Q9Y5B9 501-1006, looked up)
chain: QIQKARKSNVSYKNPSLMPKEPHIREMKIYIDKKYETVIMPVFGIATPFHIATIKNISMSVEGDYTYLRINFYCPGSALGRNEGNIFPNPEATFVKEITYRASNIKAPGEQTVPALNLQNAFRIIKEVQKRYKTREAEEKEKEGIVKQDSLVINLNRSNPKLKDLYIRPNIAQKRMQGSLEAHVNGFRFTSVRGDKVDILYNNIKHALFQPCDGEMIIVLHFHLKNAIMFGKKRHTDVQFYTEVGEITTDLGKHQHMHDRDDLYAEQMEREMRHKLKTAFKNFIEKVEALTKEELEFEVPFRDLGFNGAPYRSTCLLQPTSSALVNATEWPPFVVTLDEVELIHFERVQFHLKNFDMVIVYKDYSKKVTMINAIPVASLDPIKEWLNSCDLKYTEGVQSLNWTKIMKTIVDDPEGFFEQGGWSFLEPEGEGSDAEEGDSESEIEDETFNPSEDDYEEEEEDSDEDYSSEAEESDYSKESLGSEEESGKDWDELEEEARKADRESRY
notes: Spt16 subunit of human FACT, residues 501-1006 (without the N-terminal domain); His-MBP tag cut with TEV protease and removed by SEC before mixing with SSRP1; also called suppressor of Ty 16; Spt16 without the NTD; source: E. coli BL21(DE3), purified (Nickel-NTA, TEV cleavage, Superdex 200 SEC)
